Reference: patent US20220242939A1 (BIOARCTIC, published 2022)
Non-standard residues stand in square brackets, D forms with d. No end group written: not given here. Ahx = NCCCCCC(=O)O

Tests used:
[1] = biological target: 28F2, recombinant IgG2c antibody; assay: inhibition ELISA 2nd protocol: antigen in solution varied, antibody 28F2, plate coated with G200-BSA peptide
Description: (§1) […] of each synthetic ApoE peptide, recombinant C-terminal ApoE fragment G200-HIS and full-length ApoE4 were prepared by 4-fold dilution starting from 1000 ng/ml in 96 well storage plates (30 μl final volume). Each recombinant antibody to be tested was added (30 μl) to the serial dilutions of each of the synthetic ApoE peptides, G200-HIS or full-length ApoE4 at a final concentration of 0.05 μg/ml per well. Samples were pre-incubated for 45 min at room temperature with shaking (900 rpm).
(§2) The pre-incubated samples were transferred (50 μl/well) to the blocked ELISA plates, and plates were incubated for 25 min at room temperature without shaking. Plates were washed as described above. Alkaline phosphatase conjugated anti-mouse IgG detection antibody (Mabtech, cat. no. 3310-4) was diluted 1:1000 and added to each plate (50 μl/well). The plate was sealed and incubated with shaking (900 rpm) for 45 min at room temperature and subsequently washed as described above. Alkaline phosphatase substrate (50 μl/well) was added to the plate and the optical density was read every 15 min at a wavelength of 405 nm for up to 120 min. The IC50 values were determined from a log inhibitor concentration response curve (FIG. 17). […]

[2] = biological target: T1, 7B10, recombinant IgG2c antibody; assay: inhibition ELISA 2nd protocol: antigen in solution varied, antibody 7B10, plate coated with G200-BSA peptide
T1 construct: also called 7610
Description: as §1, §2

[3] = biological target: 17G4, recombinant IgG2c antibody; assay: inhibition ELISA 2nd protocol: antigen in solution varied, antibody 17G4, plate coated with G200-BSA peptide
Description: (§3) The pre-incubated samples were transferred (50 μl/well) to the blocked ELISA plates, and plates were incubated for 25 min at room temperature without shaking. Plates were washed as described above. Alkaline phosphatase conjugated anti-mouse IgG detection antibody (Mabtech, cat. no. 3310-4) was diluted 1:1000 and added to each plate (50 μl/well). The plate was sealed and incubated with shaking (900 rpm) for 45 min at room temperature and subsequently washed as described above. Alkaline phosphatase substrate (50 μl/well) was added to the plate and the optical density was read every 15 min at a wavelength of 405 nm for up to 120 min. The IC50 values were determined from a log inhibitor concentration response curve (FIG. 17).
(§4) In addition, a second inhibition ELISA with the ApoE peptides conjugated to BSA was run, in which the starting concentration of the antigens in solution was increased 10-fold. i.e. the starting concentration of the N-terminal neo-epitope of synthetic ApoE peptides conjugated to BSA and starting at amino acid L198 (SEQ ID NO:52), A199 (SEQ ID NO:51) or G200 (SEQ ID NO:50), or to BSA-conjugated negative control peptide (SEQ ID NO:53), was 10000 ng/ml. […] IC50 values were determined from a log inhibitor concentration response curve (FIG. 20).

[4] = biological target: 28F2, recombinant IgG2c antibody; assay: inhibition ELISA: antigen in solution varied, antibody 28F2 at 0.05 µg/ml, plate coated with G200-BSA peptide
Description: as §1, §3

[5] = biological target: 7C7, recombinant IgG2c antibody; assay: inhibition ELISA 2nd protocol: antigen in solution varied, antibody 7C7, plate coated with G200-BSA peptide
Description: as §3, §4

[6] = biological target: 7C7, recombinant IgG2c antibody; assay: inhibition ELISA: antigen in solution varied, antibody 7C7 at 0.05 µg/ml, plate coated with G200-BSA peptide
Description: as §3

[7] = biological target: T1, 7B10, recombinant IgG2c antibody; assay: inhibition ELISA: antigen in solution varied, antibody 7B10 at 0.05 µg/ml, plate coated with G200-BSA peptide
Description: as §3

[8] = biological target: 23D5, recombinant IgG2c antibody; assay: inhibition ELISA 2nd protocol: antigen in solution varied, antibody 23D5, plate coated with G200-BSA peptide
Description: as §3, §4

[9] = biological target: 17G4, recombinant IgG2c antibody; assay: inhibition ELISA: antigen in solution varied, antibody 17G4 at 0.05 µg/ml, plate coated with G200-BSA peptide
Description: as §3

[10] = biological target: 23D5, recombinant IgG2c antibody; assay: inhibition ELISA: antigen in solution varied, antibody 23D5 at 0.05 µg/ml, plate coated with G200-BSA peptide
Description: as §3

[11] = biological target: 38G9, monoclonal anti-A199 antibody; assay: inhibition ELISA; antibody at 0.05 ug/ml pre-incubated with the peptide in solution (4-fold dilutions from 10000 ng/ml), then on a plate coated with A199-BSA peptide; blank reduced OD 405 nm
Description: (§5) 0.5 μg/ml solution of N-terminal neo-epitope peptide A199 (SEQ ID NO:51) conjugated to BSA was prepared by dilution in PBS. 50 μl/well were added to an ELISA half-area 96 well microtiter plate, the plate was sealed with adhesive sealer and incubated over night at 4° C. After discarding the solution, the plates were blocked with protein-free blocking solution (Pierce) (150 μl/well) at room temperature for 90 min with shaking (900 rpm). The blocked plate was washed four times with washing buffer containing 0.28 mM NaH₂PO₄, 2.5 mM Na₂HPO₄, 150 mM NaCl, 0.1% TWEEN®-20 and 0.0075% Kathon CG.
(§6) Serial dilutions of each synthetic ApoE peptide were prepared by 4-fold dilution starting from 10000 ng/ml in 96 well storage plates (30 μl final volume). Each purified monoclonal antibody to be tested was added (30 μl) to the serial dilutions of each of the synthetic ApoE peptides at a final concentration of 0.05 μg/ml per well. Samples were pre-incubated for 45 min at room temperature with shaking (900 rpm).
as §3, with “10” for “25”, “10” for “15”, “29).” for “17).”

[12] = biological target: 36A12, monoclonal anti-A199 antibody; assay: as above
Description: as §5, §6
as §3, with “10” for “25”, “10” for “15”, “29).” for “17).”

[13] = biological target: 15F8, monoclonal anti-L198 antibody; assay: inhibition ELISA; antibody at 0.05 ug/ml pre-incubated with the peptide in solution (4-fold dilutions from 10000 ng/ml), then on a plate coated with L198-BSA peptide; blank reduced OD 405 nm
Description: as §5, with “L198” for “A199”, “NO:52)” for “NO:51)”
as §6, with “recombinant” for “purified monoclonal”
as §3, with “10” for “25”, “10” for “15”, “25).” for “17).”

[14] = biological target: 6F4, monoclonal anti-L198 antibody; assay: as above
Description: as §5, with “L198” for “A199”, “NO:52)” for “NO:51)”
as §6, with “recombinant” for “purified monoclonal”
as §3, with “10” for “25”, “10” for “15”, “25).” for “17).”

28F2, recombinant IgG2c antibody, sequence (VH, as listed by the source, chain 1 of 2): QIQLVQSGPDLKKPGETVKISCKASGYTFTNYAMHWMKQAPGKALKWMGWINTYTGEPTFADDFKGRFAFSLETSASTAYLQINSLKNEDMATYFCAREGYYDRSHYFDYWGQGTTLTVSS
28F2, recombinant IgG2c antibody, sequence (VL, as listed by the source, chain 2 of 2): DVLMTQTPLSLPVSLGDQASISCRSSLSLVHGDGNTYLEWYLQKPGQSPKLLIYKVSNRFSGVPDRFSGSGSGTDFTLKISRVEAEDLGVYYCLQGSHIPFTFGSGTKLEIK
23D5, recombinant IgG2c antibody, sequence (VH, as listed by the source, chain 1 of 2): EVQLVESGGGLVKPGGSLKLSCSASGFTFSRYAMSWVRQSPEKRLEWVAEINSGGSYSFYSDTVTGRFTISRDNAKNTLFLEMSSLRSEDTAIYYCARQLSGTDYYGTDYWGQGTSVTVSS
23D5, recombinant IgG2c antibody, sequence (VL, as listed by the source, chain 2 of 2): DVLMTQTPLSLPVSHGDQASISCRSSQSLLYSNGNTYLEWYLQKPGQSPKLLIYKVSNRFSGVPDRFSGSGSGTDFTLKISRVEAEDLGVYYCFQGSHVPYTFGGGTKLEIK
7C7, recombinant IgG2c antibody, sequence (VH, as listed by the source, chain 1 of 2): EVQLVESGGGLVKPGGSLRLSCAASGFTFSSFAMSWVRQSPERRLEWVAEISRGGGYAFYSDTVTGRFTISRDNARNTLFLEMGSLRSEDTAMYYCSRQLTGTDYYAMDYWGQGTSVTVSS
7C7, recombinant IgG2c antibody, sequence (VL, as listed by the source, chain 2 of 2): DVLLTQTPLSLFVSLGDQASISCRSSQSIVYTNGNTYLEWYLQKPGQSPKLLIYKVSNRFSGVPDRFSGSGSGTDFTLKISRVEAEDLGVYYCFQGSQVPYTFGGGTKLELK
17G4, recombinant IgG2c antibody, sequence (VH, as listed by the source, chain 1 of 2): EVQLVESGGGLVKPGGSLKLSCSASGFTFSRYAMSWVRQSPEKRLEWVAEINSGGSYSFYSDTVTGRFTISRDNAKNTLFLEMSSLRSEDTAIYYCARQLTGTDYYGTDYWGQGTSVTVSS
T1 sequence (VH, as listed by the source, chain 1 of 2): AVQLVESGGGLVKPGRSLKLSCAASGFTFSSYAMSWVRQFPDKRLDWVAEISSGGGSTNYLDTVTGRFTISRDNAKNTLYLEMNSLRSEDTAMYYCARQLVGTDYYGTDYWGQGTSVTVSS
T1 sequence (VL, as listed by the source, chain 2 of 2): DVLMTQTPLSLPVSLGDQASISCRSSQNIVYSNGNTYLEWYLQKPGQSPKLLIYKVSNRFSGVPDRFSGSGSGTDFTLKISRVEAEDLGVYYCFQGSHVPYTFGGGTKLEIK
6F4, monoclonal anti-L198 antibody, sequence (VH, as listed by the source, chain 1 of 2): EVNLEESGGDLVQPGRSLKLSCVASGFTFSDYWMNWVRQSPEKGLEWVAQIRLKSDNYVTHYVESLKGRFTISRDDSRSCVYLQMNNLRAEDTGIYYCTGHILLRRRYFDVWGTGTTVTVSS
6F4, monoclonal anti-L198 antibody, sequence (VL, as listed by the source, chain 2 of 2): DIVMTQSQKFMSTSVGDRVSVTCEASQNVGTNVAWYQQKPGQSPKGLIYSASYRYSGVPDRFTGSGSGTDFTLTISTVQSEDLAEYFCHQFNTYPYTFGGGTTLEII
38G9, monoclonal anti-A199 antibody, sequence (VH, as listed by the source, chain 1 of 2): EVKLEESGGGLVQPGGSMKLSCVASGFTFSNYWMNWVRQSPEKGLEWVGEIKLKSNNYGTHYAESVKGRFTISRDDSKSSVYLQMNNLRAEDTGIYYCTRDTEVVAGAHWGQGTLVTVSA
38G9, monoclonal anti-A199 antibody, sequence (VL, as listed by the source, chain 2 of 2): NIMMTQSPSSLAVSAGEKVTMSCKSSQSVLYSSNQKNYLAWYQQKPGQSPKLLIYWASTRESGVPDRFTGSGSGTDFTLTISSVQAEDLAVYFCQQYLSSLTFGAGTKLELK
36A12, monoclonal anti-A199 antibody, sequence (VH, as listed by the source, chain 1 of 2): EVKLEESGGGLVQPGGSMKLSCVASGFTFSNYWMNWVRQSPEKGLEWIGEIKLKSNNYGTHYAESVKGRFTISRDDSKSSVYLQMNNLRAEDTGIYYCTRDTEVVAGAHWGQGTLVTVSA
36A12, monoclonal anti-A199 antibody, sequence (VL, as listed by the source, chain 2 of 2): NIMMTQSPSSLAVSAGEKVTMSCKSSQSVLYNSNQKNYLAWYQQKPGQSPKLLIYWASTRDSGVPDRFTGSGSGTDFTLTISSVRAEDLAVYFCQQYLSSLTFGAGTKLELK
15F8, monoclonal anti-L198 antibody, sequence (VH, as listed by the source, chain 1 of 2): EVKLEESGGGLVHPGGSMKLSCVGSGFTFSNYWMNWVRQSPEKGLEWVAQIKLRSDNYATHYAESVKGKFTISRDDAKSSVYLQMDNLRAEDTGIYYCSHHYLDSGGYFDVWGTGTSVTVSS
15F8, monoclonal anti-L198 antibody, sequence (VL, as listed by the source, chain 2 of 2): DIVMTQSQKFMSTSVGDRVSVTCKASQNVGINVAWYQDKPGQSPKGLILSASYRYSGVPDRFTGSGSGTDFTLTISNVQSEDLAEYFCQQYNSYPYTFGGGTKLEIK

IC50 [1]: 3.7 ng/mL
IC50 [2]: 5.8 ng/mL
IC50 [3]: 5.8 ng/mL
IC50 [4]: 3.2 ng/mL
IC50 [5]: 6.3 ng/mL
IC50 [6]: 3.1 ng/mL
IC50 [7]: 2.2 ng/mL
IC50 [8]: 3.8 ng/mL
IC50 [9]: 2.9 ng/mL
IC50 [10]: 2.8 ng/mL
binding result [11]: no binding (tested: 10000 ng/ml)
binding result [12]: no binding (tested: 10000 ng/ml)
binding result [13]: no binding (tested: 10000 ng/ml)
binding result [14]: no binding (tested: 10000 ng/ml)
B1: G200 N-terminal neo-epitope peptide GQPLQE-Acp-C (SEQ ID NO:50) conjugated to BSA (peptide)
peptide: GQPLQE[Ahx]C
modifications: not fully specified (residue 8); printed as GQPLQE-Acp-C; also: C-terminal Cys conjugated to BSA carrier
notes: also called G200-BSA peptide; G200-peptide
